Measured values as given in US20210246204A1 (Alector, published 2021).
Changes are numbered by the printed parent chain. Where two headings read alike, the source gives them in different places. Each block holds one binder with its values, some of them ahead of it.

Experiments:
[1] = target: T1, human Siglec-7 on primary human monocyte-derived dendritic cells (human, UniProt Q9Y286 19-467); assay: flow cytometry, primary human dendritic cells
T1 construct: Endogenous Siglec-7 on dendritic cells differentiated from monocytes of healthy human donors
T1 sequence (Q9Y286 19-467): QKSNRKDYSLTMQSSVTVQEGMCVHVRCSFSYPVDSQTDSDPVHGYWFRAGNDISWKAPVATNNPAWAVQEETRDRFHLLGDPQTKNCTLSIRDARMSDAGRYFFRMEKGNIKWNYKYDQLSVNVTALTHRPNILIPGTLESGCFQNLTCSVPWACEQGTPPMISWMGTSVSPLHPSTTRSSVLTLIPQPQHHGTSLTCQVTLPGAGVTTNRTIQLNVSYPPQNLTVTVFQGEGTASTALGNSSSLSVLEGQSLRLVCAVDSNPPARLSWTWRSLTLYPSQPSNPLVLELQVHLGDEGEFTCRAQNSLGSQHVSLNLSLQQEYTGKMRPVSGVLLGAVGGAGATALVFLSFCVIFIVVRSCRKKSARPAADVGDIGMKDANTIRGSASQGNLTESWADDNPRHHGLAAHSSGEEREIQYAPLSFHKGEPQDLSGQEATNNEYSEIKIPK
Protocol: The 12 humanized antibodies of S7AB were evaluated for binding to primary dendritic cells by flow cytometry. Monocytes were isolated from blood from healthy human donors using the RosetteSep™ monocyte isolation antibody cocktail (StemCell Technologies). The isolated monocytes were differentiated into dendritic cells with 100 ng/mL GM-CSF and 100 ng/mL IL-4 (Peprotech). Dendritic cells were incubated with dilutions of the anti-Siglec-7 antibodies for 30 minutes on ice in the dark, followed by a 30-minute incubation with a fluorescently-conjugated anti-human IgG secondary antibody. Cells were washed twice in FACS buffer (PBS+2% FBS, 2 mM EDTA), and flow cytometry was performed on a BD FACS Canto. Data were analyzed using FlowJo software (Ashland, Oreg.).

[2] = target: T1, human Siglec-7 on primary human …; assay: cell-based or functional assay
[3] = target: T2, histidine-tagged human Siglec-7 (NovoProtein) (human, UniProt Q9Y286 19-353); assay: BLI, antibody captured
T2 construct: Bought protein; also called recombinant human Siglec-7; recombinant Siglec-7; not shown: histidine tag
T2 sequence (Q9Y286 19-353 limits assumed): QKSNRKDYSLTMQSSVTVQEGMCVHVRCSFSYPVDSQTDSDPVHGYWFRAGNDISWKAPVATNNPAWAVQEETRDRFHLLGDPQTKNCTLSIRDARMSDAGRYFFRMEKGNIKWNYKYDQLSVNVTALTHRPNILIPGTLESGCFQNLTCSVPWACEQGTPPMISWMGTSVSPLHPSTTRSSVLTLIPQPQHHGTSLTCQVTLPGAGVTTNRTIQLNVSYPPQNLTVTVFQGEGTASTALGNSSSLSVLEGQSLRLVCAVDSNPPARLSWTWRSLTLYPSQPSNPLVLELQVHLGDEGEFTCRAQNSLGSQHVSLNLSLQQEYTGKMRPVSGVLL
Protocol: (§1) In this assay, the humanized antibodies were compared directly to S7AB. Briefly, the antibodies were captured on anti-human or anti-mouse IgG Fc Biosensors (Pall ForteBio). Varying concentrations (0-100 nM) of histidine-tagged human Siglec-7 (NovoProtein) were then bound to the captured anti-Siglec-7 surface (200 s association time, 900 s dissociation time). Multi-concentration kinetic analysis was performed using a 1:1 interaction model to extract association and dissociation rate constants (kₐ and kd, respectively) for each antibody. Apparent affinity constants (KD) were calculated from the ratio kd/kₐ.
The affinities of S7AB-H8 and variants S7AB-H8.1 through S7AB-H8.45 for human Siglec-7 were measured by BioLayer Interferometry according to the method described in Example 1 above.

[4] = target: T1, human Siglec-7 on primary human …; assay: cell-based or functional assay; remark: listed apart in the source
[5] = target: T2, histidine-tagged human Siglec-7 …; assay: BLI (ForteBio), antibody captured
Protocol: as §1

EC50 [1]: 4.6 nM
B1: S7AB-H1 (antibody, V domains shown)
VH: QVQLVQSGAEVKKPGASVKVSCKASGYAFTNCWMNWVRQAPGQGLEWMGRIFPGNGHTNYAQKFQGRVTMTRDTSTSTVYMELSSLRSEDTAVYYCARDYSDYYFDYWGQGTLVTVSS
VL: DIQMTQSPSSLSASVGDRVTITCRASQDINTYLNWYQQKPGKAPKLLIYYTSRLHSGVPSRFSGSGSGTDFTLTISSLQPEDFATYYCQQGNTLPWTFGQGTKLEIK

Maximal downregulation (% Siglec-7 remaining) [2]: 1%
Receptor downregulation, (pM, EC50) [2]: 33.6 pM
B2: S7AB-H8.44 huIgG1 (antibody, V domains shown)
VH: B1 VH with N31A, C32A, M48I, N55L, V68A, M70L, R72E, V79A
VL: B1 VL with A25G, F71Y, T93I

Maximal downregulation (% Siglec-7 remaining) [2]: 2.8%
Receptor downregulation, (pM, EC50) [2]: 43.8 pM
B3: S7AB-H8.44 huIgG2 (antibody, V domains shown)
VH: B1 VH with N31A, C32A, M48I, N55L, V68A, M70L, R72E, V79A
VL: B1 VL with A25G, F71Y, T93I

EC50 [1]: 1.6 nM
B4: S7AB-H3 (antibody, V domains shown)
VH: B1 VH
VL: B1 VL with I2V, F71Y

EC50 [1]: 1.8 nM
B5: S7AB-H2 (antibody, V domains shown)
VH: B1 VH
VL: B1 VL with F71Y

Kd [3]: 0.531 nM
fold improvement over S7AB-H8 [3]: 2 fold
koff [3]: 9.12e-05 s⁻¹
kon [3]: 172000 M⁻¹ s⁻¹
Fold increase in potency compared to AB-H8 [4]: 3.2 fold
Fold increase in potency compared to Chimeric Ab [4]: 9.5 fold
Maximal downregulation (% Siglec-7 remaining) [4]: 9.6%
Receptor downregulation, (EC50) (pM) [4]: 108 pM
B6: S7AB-H8.41 (antibody, V domains shown)
VH: B1 VH with N31E, C32T, M48I, N55L, V68A, M70L, R72E, V79A
VL: B1 VL with A25G, F71Y, T93I

Kd [3]: 0.324 nM
fold improvement over S7AB-H8 [3]: 3.2 fold
koff [3]: 7.4e-05 s⁻¹
kon [3]: 229000 M⁻¹ s⁻¹
Fold increase in potency compared to AB-H8 [4]: 4.8 fold
Fold increase in potency compared to Chimeric Ab [4]: 14.5 fold
Maximal downregulation (% Siglec-7 remaining) [4]: 17.1%
Receptor downregulation, (EC50) (pM) [4]: 70.4 pM
B7: S7AB-H8.38 (antibody, V domains shown)
VH: B1 VH with N31G, C32Y, M48I, N55L, V68A, M70L, R72E, V79A
VL: B1 VL with A25G, F71Y, T93V

Kd [3]: 0.215 nM
fold improvement over S7AB-H8 [3]: 4.9 fold
koff [3]: 3.56e-05 s⁻¹
kon [3]: 166000 M⁻¹ s⁻¹
Fold increase in potency compared to AB-H8 [4]: 6 fold
Fold increase in potency compared to Chimeric Ab [4]: 18 fold
Maximal downregulation (% Siglec-7 remaining) [4]: 4.3%
Receptor downregulation, (EC50) (pM) [4]: 56.8 pM
B8: S7AB-H8.39 (antibody, V domains shown)
VH: B1 VH with N31A, C32A, M48I, N55L, V68A, M70L, R72E, V79A
VL: B1 VL with A25G, F71Y, T93V

EC50 [1]: 1.1 nM
B9: S7AB-H5 (antibody, V domains shown)
VH: B1 VH with M48I, R72E
VL: B1 VL with F71Y

Kd [3]: 0.198 nM
fold improvement over S7AB-H8 [3]: 5.3 fold
koff [3]: 3.71e-05 s⁻¹
kon [3]: 188000 M⁻¹ s⁻¹
Fold increase in potency compared to AB-H8 [4]: 5.6 fold
Fold increase in potency compared to Chimeric Ab [4]: 16.7 fold
Maximal downregulation (% Siglec-7 remaining) [4]: 3.6%
Receptor downregulation, (EC50) (pM) [4]: 61.2 pM
B10: S7AB-H8.44 (antibody, V domains shown)
VH: B1 VH with N31A, C32A, M48I, N55L, V68A, M70L, R72E, V79A
VL: B1 VL with A25G, F71Y, T93I

EC50 [1]: 6.3 nM
B11: S7AB-H10 (antibody, V domains shown)
VH: B1 VH with V20I, M48I, V68A, M70L, R72E, V79A, V114L
VL: B1 VL

Kd [3]: 0.605 nM
fold improvement over S7AB-H8 [3]: 1.7 fold
koff [3]: 9.81e-05 s⁻¹
kon [3]: 162000 M⁻¹ s⁻¹
Fold increase in potency compared to AB-H8 [4]: 2.7 fold
Fold increase in potency compared to Chimeric Ab [4]: 8.2 fold
Maximal downregulation (% Siglec-7 remaining) [4]: 11.4%
Receptor downregulation, (EC50) (pM) [4]: 125 pM
B12: S7AB-H8.36 (antibody, V domains shown)
VH: B1 VH with N31E, C32T, M48I, N55L, V68A, M70L, R72E, V79A
VL: B1 VL with A25G, F71Y, T93V

Kd [3]: 0.256 nM
fold improvement over S7AB-H8 [3]: 4.1 fold
koff [3]: 5.84e-05 s⁻¹
kon [3]: 228000 M⁻¹ s⁻¹
Fold increase in potency compared to AB-H8 [4]: 10.2 fold
Fold increase in potency compared to Chimeric Ab [4]: 30.8 fold
Maximal downregulation (% Siglec-7 remaining) [4]: 17.1%
Receptor downregulation, (EC50) (pM) [4]: 33.2 pM
B13: S7AB-H8.43 (antibody, V domains shown)
VH: B1 VH with N31G, C32Y, M48I, N55L, V68A, M70L, R72E, V79A
VL: B1 VL with A25G, F71Y, T93I
notes: also called S7AB-H.43

Kd [3]: 0.444 nM
fold improvement over S7AB-H8 [3]: 2.4 fold
koff [3]: 7.55e-05 s⁻¹
kon [3]: 170000 M⁻¹ s⁻¹
Fold increase in potency compared to AB-H8 [4]: 3.4 fold
Fold increase in potency compared to Chimeric Ab [4]: 10.4 fold
Maximal downregulation (% Siglec-7 remaining) [4]: 6.9%
Receptor downregulation, (EC50) (pM) [4]: 98.6 pM
B14: S7AB-H8.45 (antibody, V domains shown)
VH: B1 VH with N31E, C32A, M48I, N55Y, V68A, M70L, R72E, V79A
VL: B1 VL with A25G, F71Y, T93I

Kd [3]: 0.126 nM
fold improvement over S7AB-H8 [3]: 8.3 fold
koff [3]: 2.42e-05 s⁻¹
kon [3]: 191000 M⁻¹ s⁻¹
Fold increase in potency compared to AB-H8 [4]: 5.4 fold
Fold increase in potency compared to Chimeric Ab [4]: 16.4 fold
Maximal downregulation (% Siglec-7 remaining) [4]: 3.3%
Receptor downregulation, (EC50) (pM) [4]: 62.6 pM
B15: S7AB-H8.42 (antibody, V domains shown)
VH: B1 VH with N31M, C32A, M48I, N55Y, V68A, M70L, R72E, V79A
VL: B1 VL with A25G, F71Y, T93I

Kd [3]: 0.607 nM
fold improvement over S7AB-H8 [3]: 1.7 fold
koff [3]: 6.57e-05 s⁻¹
kon [3]: 108000 M⁻¹ s⁻¹
Fold increase in potency compared to AB-H8 [4]: 1.6 fold
Fold increase in potency compared to Chimeric Ab [4]: 5 fold
Maximal downregulation (% Siglec-7 remaining) [4]: 9.3%
Receptor downregulation, (EC50) (pM) [4]: 206 pM
B16: S7AB-H8.35 (antibody, V domains shown)
VH: B1 VH with N31E, C32A, M48I, N55Y, V68A, M70L, R72E, V79A
VL: B1 VL with A25G, F71Y, N92G

Kd [3]: 0.237 nM
fold improvement over S7AB-H8 [3]: 4.4 fold
koff [3]: 2.81e-05 s⁻¹
kon [3]: 119000 M⁻¹ s⁻¹
Fold increase in potency compared to AB-H8 [4]: 2.9 fold
Fold increase in potency compared to Chimeric Ab [4]: 8.7 fold
Maximal downregulation (% Siglec-7 remaining) [4]: 3.6%
Receptor downregulation, (EC50) (pM) [4]: 118 pM
B17: S7AB-H8.34 (antibody, V domains shown)
VH: B1 VH with N31A, C32A, M48I, N55L, V68A, M70L, R72E, V79A
VL: B1 VL with A25G, F71Y, N92G

Kd [3]: 0.425 nM
fold improvement over S7AB-H8 [3]: 2.5 fold
koff [3]: 6.29e-05 s⁻¹
kon [3]: 148000 M⁻¹ s⁻¹
Fold increase in potency compared to AB-H8 [4]: 2.9 fold
Fold increase in potency compared to Chimeric Ab [4]: 8.9 fold
Maximal downregulation (% Siglec-7 remaining) [4]: 9.4%
Receptor downregulation, (EC50) (pM) [4]: 115 pM
B18: S7AB-H8.40 (antibody, V domains shown)
VH: B1 VH with N31E, C32A, M48I, N55Y, V68A, M70L, R72E, V79A
VL: B1 VL with A25G, F71Y, T93V

EC50 [1]: 3.3 nM
B19: S7AB-H7 (antibody, V domains shown)
VH: B1 VH with V20I, M48I, V68A, M70L, R72E, V79A
VL: B1 VL

EC50 [1]: 1.6 nM
B20: S7AB-H6 (antibody, V domains shown)
VH: B1 VH with M48I, R72E
VL: B1 VL with I2V, F71Y

Kd [3]: 0.135 nM
fold improvement over S7AB-H8 [3]: 7.8 fold
koff [3]: 2.5e-05 s⁻¹
kon [3]: 186000 M⁻¹ s⁻¹
Fold increase in potency compared to AB-H8 [4]: 4.8 fold
Fold increase in potency compared to Chimeric Ab [4]: 14.3 fold
Maximal downregulation (% Siglec-7 remaining) [4]: 3.4%
Receptor downregulation, (EC50) (pM) [4]: 71.4 pM
B21: S7AB-H8.37 (antibody, V domains shown)
VH: B1 VH with N31M, C32A, M48I, N55Y, V68A, M70L, R72E, V79A
VL: B1 VL with A25G, F71Y, T93V

EC50 [1]: 3.2 nM
B22: S7AB-H4 (antibody, V domains shown)
VH: B1 VH with M48I, R72E
VL: B1 VL

Kd [5]: 1.24 nM
koff [5]: 0.000242 s⁻¹
kon [5]: 195000 M⁻¹ s⁻¹
B23: S7AB (antibody, V domains shown)
VH: QVHLQQSGPELVKPGASVKISCKASGYAFTNCWMNWVRQRPGKGLDWIGRIFPGNGHTNYSGKFKDKATLTEDKSSSTAYMQLSSLTSEDSAVYFCARDYSDYYFDYWGQGTTLTVSS
VL: DVQMTQTTSSLSASLGDRVTISCRASQDINTYLNWYQQKPDGTVKLLIYYTSRLHSGVPSRFSGSGSGTDYSLTISNLEQEDIATYFCQQGNTLPWTFGGGTKLEIK
notes: Parental mouse antibody; also called S7-10B5.1; mouse anti-human Siglec-7 antibody
